The labels stand for the following.
B1: CLINT1 (parent)
chain: VVTSAREHIYDLRSLENYHFVDEH
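Further: lentivirally expressed fusions sorted by FACS into six bins by GFP to DsRed ratio, PSI derived from sequencing read proportions per bin multiplied by bin number.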

In the data set the parent is B1. The experiment in a line: protein stability index of a GFP-peptide fusion (GPS, HEK-293T) (PSI 1-6); higher = more stable. To be noted: c terminus: a fixed tail appended.
In the case of VVTSAREHIYDLRSLENYHFYDEH [V21Y], the protein stability index was determined as 2.47.

As to VVTSAREHIYDLRSLENYHFSDEH [V21S], the protein stability index amounted to 2.96.

As for VVTSAREHIYDLRSLENYHFTDEH [V21T], the protein stability index amounted to 2.84.

In the case of VVTSAREHIYDLRSLENYHFFDEH [V21F], the protein stability index was found to be 2.48.

As to VVTSAREHIYDLRSLENYHFEDEH [V21E], the protein stability index was 3.79.

Consider VVTSAREHIYDLRSLENYHFWDEH [V21W], for which the protein stability index was determined as 2.54.

Turning to VVTSAREHIYDLRSLENYHFMDEH [V21M], the protein stability index was determined as 2.54.

Consider VVTSAREHIYDLRSLENYHFDDEH [V21D], for which the protein stability index is 3.74.

On to VVTSAREHIYDLRSLENYHFCDEH [V21C], for which the protein stability index stood at 2.78.

VVTSAREHIYDLRSLENYHFRDEH [V21R]: the protein stability index worked out at 2.54.

For VVTSAREHIYDLRSLENYHFHDEH [V21H], the protein stability index is 2.98.

For the variant VVTSAREHIYDLRSLENYHFKDEH [V21K], the protein stability index stood at 2.53.

For the variant VVTSAREHIYDLRSLENYHFPDEH [V21P], the protein stability index amounted to 3.38.

With VVTSAREHIYDLRSLENYHFIDEH [V21I], the protein stability index was found to be 2.52.

As to VVTSAREHIYDLRSLENYHFQDEH [V21Q], the protein stability index came out at 3.25.

As for VVTSAREHIYDLRSLENYHFGDEH [V21G], the protein stability index came out at 3.49.

VVTSAREHIYDLRSLENYHFADEH [V21A]: the protein stability index turned out to be 3.44.

Turning to VVTSAREHIYDLRSLENYCFVDEH [H19C], the protein stability index came to 2.33.

For VVTSAREHIYDLRSLENYWFVDEH [H19W], the protein stability index was determined as 1.6.

VVTSAREHIYDLRSLENYYFVDEH [H19Y]: the protein stability index is 2.55.

With VVTSAREHIYDLRSLENYQFVDEH [H19Q], the protein stability index was 3.12.

Take VVTSAREHIYDLRSLENYKFVDEH [H19K]: the protein stability index was 4.3.

Turning to VVTSAREHIYDLRSLENYPFVDEH [H19P], the protein stability index is 3.

As for VVTSAREHIYDLRSLENYMFVDEH [H19M], the protein stability index is 2.4.

In the case of VVTSAREHIYDLRSLENYSFVDEH [H19S], the protein stability index came to 3.21.

On to VVTSAREHIYDLRSLENYEFVDEH [H19E], for which the protein stability index was determined as 3.8.

As for VVTSAREHIYDLRSLENYFFVDEH [H19F], the protein stability index is 2.26.

Take VVTSAREHIYDLRSLENYTFVDEH [H19T]: the protein stability index is 3.28.

VVTSAREHIYDLRSLENYLFVDEH [H19L]: the protein stability index turned out to be 2.68.

For VVTSAREHIYDLRSLENYAFVDEH [H19A], the protein stability index came out at 2.03.

With VVTSAREHIYDLRSLENYNFVDEH [H19N], the protein stability index was 3.09.

As for VVTSAREHIYDLRSLENYRFVDEH [H19R], the protein stability index amounted to 3.52.

As to VVTSAREHIYDLRSLENYDFVDEH [H19D], the protein stability index was 3.99.

Turning to VVTSAREHIYDLRSLENYIFVDEH [H19I], the protein stability index was found to be 2.41.

Take VVTSAREHIYDLRSLENYVFVDEH [H19V]: the protein stability index stood at 2.11.

With VVTSAREHIYDLRSLENYGFVDEH [H19G], the protein stability index was found to be 3.16.

On to VVTSAREHIYDLRSLENYHFVWEH [D22W], for which the protein stability index came out at 3.21.

Consider VVTSAREHIYDLRSLENYHFVQEH [D22Q], for which the protein stability index was determined as 2.59.

In the case of VVTSAREHIYDLRSLENYHFVTEH [D22T], the protein stability index came out at 1.75.

For VVTSAREHIYDLRSLENYHFVNEH [D22N], the protein stability index worked out at 2.35.

For VVTSAREHIYDLRSLENYHFVPEH [D22P], the protein stability index worked out at 2.58.

With VVTSAREHIYDLRSLENYHFVAEH [D22A], the protein stability index stood at 2.1.

On to VVTSAREHIYDLRSLENYHFVEEH [D22E], for which the protein stability index turned out to be 2.42.

Regarding VVTSAREHIYDLRSLENYHFVHEH [D22H], the protein stability index came out at 2.93.

Consider VVTSAREHIYDLRSLENYHFVKEH [D22K], for which the protein stability index is 2.49.

On to VVTSAREHIYDLRSLENYHFVIEH [D22I], for which the protein stability index turned out to be 1.09.

In the case of VVTSAREHIYDLRSLENYHFVVEH [D22V], the protein stability index stood at 2.3.

For VVTSAREHIYDLRSLENYHFVSEH [D22S], the protein stability index came out at 2.31.

For VVTSAREHIYDLRSLENYHFVYEH [D22Y], the protein stability index is 1.5.

On to VVTSAREHIYDLRSLENYHFVCEH [D22C], for which the protein stability index was found to be 1.98.

As to VVTSAREHIYDLRSLENYHFVFEH [D22F], the protein stability index is 2.2.

With VVTSAREHIYDLRSLENYHFVREH [D22R], the protein stability index is 2.38.

VVTSAREHIYDLRSLENYHFVGEH [D22G]: the protein stability index came to 2.85.

Take VVTSAREHIYDLRSLENYHFVMEH [D22M]: the protein stability index was determined as 1.66.

On to VVTSAREHIYDLRSLENYHFVLEH [D22L], for which the protein stability index worked out at 1.57.

Take VVTSAREHIYDLRSLENYHFVDEW [H24W]: the protein stability index amounted to 2.98.

On to VVTSAREHIYDLRSLENYHFVDEK [H24K], for which the protein stability index amounted to 3.21.

Consider VVTSAREHIYDLRSLENYHFVDEY [H24Y], for which the protein stability index came to 2.32.

Consider VVTSAREHIYDLRSLENYHFVDED [H24D], for which the protein stability index was found to be 4.13.

As to VVTSAREHIYDLRSLENYHFVDER [H24R], the protein stability index came to 2.78.

Consider VVTSAREHIYDLRSLENYHFVDEN [H24N], for which the protein stability index came to 3.5.

Turning to VVTSAREHIYDLRSLENYHFVDES [H24S], the protein stability index amounted to 3.44.

Consider VVTSAREHIYDLRSLENYHFVDEP [H24P], for which the protein stability index stood at 2.79.

Take VVTSAREHIYDLRSLENYHFVDEQ [H24Q]: the protein stability index was found to be 3.39.

For the variant VVTSAREHIYDLRSLENYHFVDEL [H24L], the protein stability index was 2.22.

Take VVTSAREHIYDLRSLENYHFVDEC [H24C]: the protein stability index is 2.3.

For the variant VVTSAREHIYDLRSLENYHFVDEI [H24I], the protein stability index is 2.35.

Consider VVTSAREHIYDLRSLENYHFVDET [H24T], for which the protein stability index was 3.11.

On to VVTSAREHIYDLRSLENYHFVDEV [H24V], for which the protein stability index was found to be 2.38.

As to VVTSAREHIYDLRSLENYHFVDEG [H24G], the protein stability index turned out to be 3.55.

As to VVTSAREHIYDLRSLENYHFVDEM [H24M], the protein stability index turned out to be 2.92.

With VVTSAREHIYDLRSLENYHFVDEA [H24A], the protein stability index came out at 2.85.

For the variant VVTSAREHIYDLRSLENYHFVDEF [H24F], the protein stability index came to 2.58.

With VVTSAREHIYDLRSLENYHFVDEE [H24E], the protein stability index worked out at 4.04.

As to VVTSAREHIYDLRSLENYHIVDEH [F20I], the protein stability index was determined as 3.43.

On to VVTSAREHIYDLRSLENYHRVDEH [F20R], for which the protein stability index was 3.24.

For the variant VVTSAREHIYDLRSLENYHGVDEH [F20G], the protein stability index turned out to be 3.54.

In the case of VVTSAREHIYDLRSLENYHEVDEH [F20E], the protein stability index worked out at 3.97.

For VVTSAREHIYDLRSLENYHDVDEH [F20D], the protein stability index stood at 4.77.

For the variant VVTSAREHIYDLRSLENYHYVDEH [F20Y], the protein stability index amounted to 3.24.

As for VVTSAREHIYDLRSLENYHNVDEH [F20N], the protein stability index was 3.77.

On to VVTSAREHIYDLRSLENYHCVDEH [F20C], for which the protein stability index was found to be 3.46.

Take VVTSAREHIYDLRSLENYHSVDEH [F20S]: the protein stability index stood at 3.79.

For VVTSAREHIYDLRSLENYHAVDEH [F20A], the protein stability index came to 4.11.

VVTSAREHIYDLRSLENYHQVDEH [F20Q]: the protein stability index was found to be 3.73.

With VVTSAREHIYDLRSLENYHVVDEH [F20V], the protein stability index is 3.71.

As to VVTSAREHIYDLRSLENYHMVDEH [F20M], the protein stability index stood at 3.26.

VVTSAREHIYDLRSLENYHKVDEH [F20K]: the protein stability index came out at 3.33.

Take VVTSAREHIYDLRSLENYHWVDEH [F20W]: the protein stability index is 2.58.

On to VVTSAREHIYDLRSLENYHHVDEH [F20H], for which the protein stability index was 3.57.

Turning to VVTSAREHIYDLRSLENYHPVDEH [F20P], the protein stability index amounted to 3.96.

For VVTSAREHIYDLRSLENYHLVDEH [F20L], the protein stability index turned out to be 4.22.

VVTSAREHIYDLRSLENYHTVDEH [F20T]: the protein stability index was 2.99.

As for VVTSAREHIYDLRSLENWHFVDEH [Y18W], the protein stability index worked out at 2.94.
